The target of this experiment is AGL6 fused to YFP or CFP (Arabidopsis thaliana) (UniProt P29386). As to the kind of experiment: FRET or BRET; in vivo FRET on the FYL1-AGL6-AGL6-AGL15 tetramer: one CFP and one YFP fusion co-expressed with the unlabeled other members in tobacco leaf cells; steady-state FRET efficiency in nuclei. Background: In BRET a luciferase serves as donor, and the signal depends on an acceptor being close.
Sequence of UniProt P29386 (P29386 whole entry, the tested form may be a part): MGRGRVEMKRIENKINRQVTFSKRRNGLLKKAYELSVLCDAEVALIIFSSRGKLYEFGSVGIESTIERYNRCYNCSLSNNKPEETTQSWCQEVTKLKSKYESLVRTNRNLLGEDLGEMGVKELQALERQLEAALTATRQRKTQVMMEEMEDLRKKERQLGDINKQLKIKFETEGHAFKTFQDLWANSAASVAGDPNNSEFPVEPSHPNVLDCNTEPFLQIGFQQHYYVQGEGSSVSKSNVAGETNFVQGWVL

“FYF-like 1 (FYL1/AGL71) fused to CFP or YFP (from UniProt Q9LT93 1-207) (natural protein)” displayed an FRET efficiency (AGL6:CFP/FYL1:YFP, unlabeled AGL15 co-expressed) of 32%.

The values are drawn from article PMC9256709.
